Measurements as given in patent publication US20200308559A1, “Composition for detecting protein-protein interactions comprising fragments of secreted alkaline phosphatase (SEAP) and method for detecting protein-protein interactions using the same” (priority 2019, published 2020).

Target: T1, interaction (binding) between FKBP12 and FRB (Homo sapiens, UniProt P42345+P62942)
T1 construct: FLAG-FRB expression vector; expressed in transfected cells; host or cells: HEK-293T (ATCC CRL-11268)
Assay: Split SEAP fragment complementation: SEAP activity in culture supernatant (pNpp, absorbance 405 nm) after rapamycin-induced FKBP12-FRB binding
Type: cell-based
Conditions: HEK-293T cells, same manner as Example 2; for SEAP activity of the pair pSNA418 with pSCA405 or pSCB405 (FIG. 6): N-terminal fragment cleaved at 418, C-terminal fragment cleaved at 404; for SEAP activity of the pair pSNA404 with pSCA388 or pSCB388 (FIG. 6): N-terminal fragment cleaved at 404, C-terminal fragment cleaved at 387; for SEAP activity of the pair pSNA387 with pSCA380 (FIG. 6): N-terminal fragment cleaved at 387, C-terminal fragment cleaved at 379; for SEAP activity of the pair pSNA379 with pSCA373 or pSCB373 (FIG. 6): N-terminal fragment cleaved at 379, C-terminal fragment cleaved at 372
Experimental: HEK-293T (Human embryonic kidney cell, ATCC: CRL-11268) cells were cultured in DMEM (Dulbecco's modified Eagle's media, Gibco, Seoul, South Korea) treated with a 10% (v/v) FBS (HyClone) and 1% (v/v) penicillin/streptomycin solution (HyClone) and cultured at 37° C. in a humidified atmosphere containing 5% CO2.
HEK-293T cells were seeded at 2×10^4 cells per well in a 48-well plate and cultured until 24 hours before transformation.
For the transformation, 0.15 μL of PEI (PEI, <20,000 MW, Cat. No. 23966, Polysciences, Inc., Warrington, Pa., USA; stock solution: 4 mg/mL in ddH20, pH 7.2) was mixed with 0.2 pLg of DNA, and the mixture was vortexed for 5 seconds and then incubated for 20 minutes at 25° C. to prepare 40 μL of DNA-PEI mixture per well. At this time, the DNA was prepared by mixing a vector (pSNA series) containing a SEAP N-terminal fragment and a vector (pSCA or pSCB series) containing a SEAP C-terminal fragment.
After 24 hours of the transformation, the culture medium was replaced with DMEM with 100 nM rapamycin or DMEM without rapamycin.
SEAP activity was measured after 24 hours. The SEAP activity was measured in a time course using a p-nitrophenylphosphate (pNpp)-based absorbance (405 nm) measuring method. 80 μL of a culture medium supernatant, 100 μL of a 2× SEAP buffer solution (21% diethanolamine, 20 mM L-homoarginine, and 1 mM MgCl2, pH 9.8), and 20 μL of 120 mM pNpp were mixed and reacted with one another, and then absorbance at 405 nm was measured.

T1 sequence (P62942 whole entry): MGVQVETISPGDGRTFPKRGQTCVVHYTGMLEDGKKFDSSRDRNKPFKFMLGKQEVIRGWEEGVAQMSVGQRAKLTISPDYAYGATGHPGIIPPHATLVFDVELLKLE
T1 sequence (P42345 2012-2144): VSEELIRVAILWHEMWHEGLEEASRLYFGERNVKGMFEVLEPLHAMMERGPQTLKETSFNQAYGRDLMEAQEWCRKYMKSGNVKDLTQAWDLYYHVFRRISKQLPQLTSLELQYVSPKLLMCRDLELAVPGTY

Molecule: pSNA418: HA-FKBP-snSEAP fusion: SEAP N-terminal fragment (1-418), expression vector
- SEAP activity of the pair pSNA418 with pSCA405 or pSCB405 (FIG. 6): excellent SEAP activity

Molecule: pSNA404: HA-FKBP-snSEAP fusion: SEAP N-terminal fragment (1-404), expression vector
- SEAP activity of the pair pSNA404 with pSCA388 or pSCB388 (FIG. 6): excellent SEAP activity

Molecule: pSNA387: HA-FKBP-snSEAP fusion: SEAP N-terminal fragment (1-387), expression vector
- SEAP activity of the pair pSNA387 with pSCA380 (FIG. 6): excellent SEAP activity

Molecule: pSNA379: HA-FKBP-snSEAP fusion: SEAP N-terminal fragment (1-379) fused to C-terminal of FKBP12, expression vector
- SEAP activity of the pair pSNA379 with pSCA373 or pSCB373 (FIG. 6): excellent SEAP activity

B1: pSCA373: FLAG-FRB-scSEAP fusion: SEAP C-terminal fragment (373-502), cleaved at position 372, expression vector (protein)
chain: ILWHEMWHEGLEEASRLYFGERNVKGMFEVLEPLHAMMERGPQTLKETSFNQAYGRDLMEAQEWCRKYMKSGNVKDLTQAWDLYYHVFRRISKKGSGSTSGSGSIFGLAPGKARDRKAYTVLLYGNGPGYVLKDGARPDVTESESGSPEYRQQSAVPLDEETHAGEDVAVFARGPQAHLVHGVQEQTFIAHVMAFAACLEPYTACDLAPPAGTTDAAHPGYSRVGAAGRFEQT
modifications: left off: small tags and cut ends
notes: FLAG-FRB-scSEAP fusion: SEAP C-terminal fragment (373-502), cleaved at position 372, expression vector
- SEAP activity of the pair pSNA379 with pSCA373 or pSCB373 (FIG. 6): excellent SEAP activity

B2: pSCB373: scSEAP-FRB-FLAG fusion: SEAP C-terminal fragment (373-502), cleaved at position 372, expression vector (protein)
chain: SIFGLAPGKARDRKAYTVLLYGNGPGYVLKDGARPDVTESESGSPEYRQQSAVPLDEETHAGEDVAVFARGPQAHLVHGVQEQTFIAHVMAFAACLEPYTACDLAPPAGTTDAAHPGYSRVGAAGRFEQTKGSGSTSGSGILWHEMWHEGLEEASRLYFGERNVKGMFEVLEPLHAMMERGPQTLKETSFNQAYGRDLMEAQEWCRKYMKSGNVKDLTQAWDLYYHVFRRISK
modifications: left off: small tags and cut ends
notes: scSEAP-FRB-FLAG fusion: SEAP C-terminal fragment (373-502), cleaved at position 372, expression vector
- SEAP activity of the pair pSNA379 with pSCA373 or pSCB373 (FIG. 6): excellent SEAP activity

B3: pSCA388: FLAG-FRB-scSEAP fusion: SEAP C-terminal fragment (388-502), cleaved at position 387, expression vector (protein)
chain: ILWHEMWHEGLEEASRLYFGERNVKGMFEVLEPLHAMMERGPQTLKETSFNQAYGRDLMEAQEWCRKYMKSGNVKDLTQAWDLYYHVFRRISKKGSGSTSGSGYTVLLYGNGPGYVLKDGARPDVTESESGSPEYRQQSAVPLDEETHAGEDVAVFARGPQAHLVHGVQEQTFIAHVMAFAACLEPYTACDLAPPAGTTDAAHPGYSRVGAAGRFEQT
modifications: left off: small tags and cut ends
notes: FLAG-FRB-scSEAP fusion: SEAP C-terminal fragment (388-502), cleaved at position 387, expression vector
- SEAP activity of the pair pSNA404 with pSCA388 or pSCB388 (FIG. 6): excellent SEAP activity

B4: pSCB405: scSEAP-FRB-FLAG fusion: SEAP C-terminal fragment (405-502), cleaved at position 404, expression vector (protein)
chain: ARPDVTESESGSPEYRQQSAVPLDEETHAGEDVAVFARGPQAHLVHGVQEQTFIAHVMAFAACLEPYTACDLAPPAGTTDAAHPGYSRVGAAGRFEQTKGSGSTSGSGILWHEMWHEGLEEASRLYFGERNVKGMFEVLEPLHAMMERGPQTLKETSFNQAYGRDLMEAQEWCRKYMKSGNVKDLTQAWDLYYHVFRRISK
modifications: left off: small tags and cut ends
notes: scSEAP-FRB-FLAG fusion: SEAP C-terminal fragment (405-502), cleaved at position 404, expression vector
- SEAP activity of the pair pSNA418 with pSCA405 or pSCB405 (FIG. 6): excellent SEAP activity

B5: pSCA380: FLAG-FRB-scSEAP fusion: SEAP C-terminal fragment (380-502), cleaved at position 379, expression vector (protein)
chain: ILWHEMWHEGLEEASRLYFGERNVKGMFEVLEPLHAMMERGPQTLKETSFNQAYGRDLMEAQEWCRKYMKSGNVKDLTQAWDLYYHVFRRISKKGSGSTSGSGGKARDRKAYTVLLYGNGPGYVLKDGARPDVTESESGSPEYRQQSAVPLDEETHAGEDVAVFARGPQAHLVHGVQEQTFIAHVMAFAACLEPYTACDLAPPAGTTDAAHPGYSRVGAAGRFEQT
modifications: left off: small tags and cut ends
notes: FLAG-FRB-scSEAP fusion: SEAP C-terminal fragment (380-502), cleaved at position 379, expression vector
- SEAP activity of the pair pSNA387 with pSCA380 (FIG. 6): excellent SEAP activity

B6: pSCA405: FLAG-FRB-scSEAP fusion: SEAP C-terminal fragment (405-502), cleaved at position 404, expression vector (protein)
chain: ILWHEMWHEGLEEASRLYFGERNVKGMFEVLEPLHAMMERGPQTLKETSFNQAYGRDLMEAQEWCRKYMKSGNVKDLTQAWDLYYHVFRRISKKGSGSTSGSGARPDVTESESGSPEYRQQSAVPLDEETHAGEDVAVFARGPQAHLVHGVQEQTFIAHVMAFAACLEPYTACDLAPPAGTTDAAHPGYSRVGAAGRFEQT
modifications: left off: small tags and cut ends
notes: FLAG-FRB-scSEAP fusion: SEAP C-terminal fragment (405-502), cleaved at position 404, expression vector
- SEAP activity of the pair pSNA418 with pSCA405 or pSCB405 (FIG. 6): excellent SEAP activity

B7: pSCB388: scSEAP-FRB-FLAG fusion: SEAP C-terminal fragment (388-502), cleaved at position 387, expression vector (protein)
chain: YTVLLYGNGPGYVLKDGARPDVTESESGSPEYRQQSAVPLDEETHAGEDVAVFARGPQAHLVHGVQEQTFIAHVMAFAACLEPYTACDLAPPAGTTDAAHPGYSRVGAAGRFEQTKGSGSTSGSGILWHEMWHEGLEEASRLYFGERNVKGMFEVLEPLHAMMERGPQTLKETSFNQAYGRDLMEAQEWCRKYMKSGNVKDLTQAWDLYYHVFRRISK
modifications: left off: small tags and cut ends
notes: scSEAP-FRB-FLAG fusion: SEAP C-terminal fragment (388-502), cleaved at position 387, expression vector
- SEAP activity of the pair pSNA404 with pSCA388 or pSCB388 (FIG. 6): excellent SEAP activity
